# Experimental data: publication PMC4119599 (Biochemistry, 2011)
# How the values were obtained:
# mtMenB [1] = target: T1, mtMenB (Mycobacterium tuberculosis, UniProt P9WNP5); assay: not stated; type: binding
# mtMenB [2] = target: T1, mtMenB; assay: X-ray co-crystal structure, […] Å; type: binding; details: partial occupancy, weak density, acyl part not resolved; pH 8.0
# ecMenB = ecMenB (Escherichia coli, UniProt P0ABU0); assay: X-ray co-crystal structure, […] Å; type: binding; details: all six active sites of the hexamer; stable substrate analogue; pH 6.5
# [3] = tested on: CC(C)(COP(=O)(O)OP(=O)(O)OC[C@H]1O[C@@H](n2cnc3c(N)ncnc32)[C@H](O)[C@@H]1OP(=O)(O)O)[C@@H](O)C(=O)NCCC(=O)NCCSC(=O)CCC(=O)c1ccccc1C(=O)O; assay: purified protein; type: biochemical, Escherichia coli; details: pH 7.0; 25.0 °C
# [4] = tested on: CC(C)(COP(=O)(O)OP(=O)(O)OC[C@H]1O[C@@H](n2cnc3c(N)ncnc32)[C@H](O)[C@@H]1OP(=O)(O)O)[C@@H](O)C(=O)NCCC(=O)NCCSC(=O)CCC(=O)c1ccccc1C(=O)O; assay: purified protein; details: pH 7.0; 25.0 °C
# [5] = tested on: CC(C)(COP(=O)(O)OP(=O)(O)OC[C@H]1O[C@@H](n2cnc3c(N)ncnc32)[C@H](O)[C@@H]1OP(=O)(O)O)[C@@H](O)C(=O)NCCC(=O)NCCSC(=O)CCCc1ccccc1C(=O)O; assay: purified protein; details: pH 7.0; 25.0 °C
# T1 sequence (P9WNP5 whole entry): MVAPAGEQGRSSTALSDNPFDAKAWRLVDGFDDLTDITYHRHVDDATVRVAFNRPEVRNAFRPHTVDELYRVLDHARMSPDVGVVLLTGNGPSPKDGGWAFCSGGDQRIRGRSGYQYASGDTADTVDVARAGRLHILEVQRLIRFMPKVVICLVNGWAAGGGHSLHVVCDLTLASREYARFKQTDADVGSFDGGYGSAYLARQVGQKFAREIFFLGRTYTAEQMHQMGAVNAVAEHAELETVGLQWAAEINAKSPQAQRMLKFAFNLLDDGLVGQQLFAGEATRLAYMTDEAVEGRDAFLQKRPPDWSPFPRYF
# ecMenB, sequence (P0ABU0 whole entry): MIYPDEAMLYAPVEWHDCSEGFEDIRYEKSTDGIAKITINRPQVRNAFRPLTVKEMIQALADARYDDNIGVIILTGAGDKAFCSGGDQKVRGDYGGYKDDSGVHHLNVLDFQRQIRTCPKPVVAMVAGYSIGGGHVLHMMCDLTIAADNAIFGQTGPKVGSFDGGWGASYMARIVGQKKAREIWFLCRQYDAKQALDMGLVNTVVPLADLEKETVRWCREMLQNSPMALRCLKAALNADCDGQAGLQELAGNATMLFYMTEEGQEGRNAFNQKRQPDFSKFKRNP
compound,measurement,setting,value
COC(=O)c1ccccc1C(=O)CCC(=O)SCCNC(=O)CCNC(=O)[C@H](O)C(C)(C)COP(=O)(O)OP(=O)(O)OC[C@H]1O[C@@H](n2cnc3c(N)ncnc32)[C@H](O)[C@@H]1OP(=O)(O)O [OSB-CoA methyl ester],Kd,mtMenB [1],11.5 ± 1.2 µM
CC(C)(COP(=O)(O)OP(=O)(O)OC[C@H]1O[C@@H](n2cnc3c(N)ncnc32)[C@H](O)[C@@H]1OP(=O)(O)O)[C@@H](O)C(=O)NCCC(=O)NCCNC(=O)CCC(=O)c1ccccc1C(=O)O [OSB-NCoA],"X-ray co-crystal structure, 2.25 Å",mtMenB [2],Density for OSB-NCoA can be observed but is weak in chain C
same,"X-ray co-crystal structure, 2.00 Å",ecMenB,"In the structure of OSB-NCoA bound to ecMenB, the ligand can be observed in all six"
(Escherichia coli K-12),Km,[3],25.9 ± 3.3 µM
(Mycobacterium tuberculosis H37Rv),Km,[4],22.4 ± 2.1 µM
same,Km,[5],106 ± 31 µM
same,kcat/Km,[5],2.4 ± 0.7 M⁻¹ s⁻¹
